Target: T1, hIL2Rg ECD antigen (human, UniProt P31785 23-262)
T1 construct: Antigen of biopanning and PE-ELISA; also called extracellular domain of human IL2Rg; CD132 ECD
T1 sequence: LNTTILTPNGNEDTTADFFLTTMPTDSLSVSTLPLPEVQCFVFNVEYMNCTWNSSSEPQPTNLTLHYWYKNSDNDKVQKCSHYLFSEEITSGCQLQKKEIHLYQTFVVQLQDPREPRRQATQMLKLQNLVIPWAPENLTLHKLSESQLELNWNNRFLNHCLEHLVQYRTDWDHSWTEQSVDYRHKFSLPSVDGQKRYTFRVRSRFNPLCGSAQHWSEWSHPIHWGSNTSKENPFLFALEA
Test: periplasmic extract ELISA (PE-ELISA) of phage clones after biopanning

B1: hIL2Rg_VHH-15 (VHH)
VHH: QVQLQESGGGLVQPGGSLRLSCAASGFTFSSAHMSWVRQAPGKGREWIASIYSGGGTFYADSVKGRFTISRDNAKNTLYLQLNSLKAEDTAMYYCATNRLHYYSDDDSLRGQGTQVTVSS
notes: Periplasmic extract of a phage clone, as in the PE-ELISA; not shown: HA/His tag of the pMECS phagemid
  binding result: binds

— patent US20230272089A1 (SYNTHEKINE, published 2023)
